# Numbering of substitutions follows the chain as printed. Names may count otherwise.
# B1: PEGylated 1-15(N52D)-Fab′ (Fab, V domains shown)
# VH: QVQLQQWGAGLLKPSETLSLTCAVYGGSFSGYYWSWVRQPPGKGLEWIGEIDHSGSTNNNPSLKSRVTISVGTSKNQFSLKLSSVTAADTAVYYCSRDGGPESGMGAFDIWGQGTMVTVSS
# VL: not shown
# modifications: 40 kDa PEG (maleimide, SUNBRIGHT GL2-400MA) on Cys of the carboxyl terminal (C226 based on EU index; Cys at position 230 of SEQ ID NO:10)
# B2: 1-15(N52D-A)-Fab′-5kPEG (Fab, V domains shown)
# VH: B1 VH
# VL: not shown
# modifications: 5 kDa PEG conjugated by a procedure similar to Example 13 (hinge Cys)
# B3: 1-15(N52D-A)-Fab′-10kPEG (Fab, V domains shown)
# VH: B1 VH
# VL: not shown
# modifications: 10 kDa PEG conjugated by a procedure similar to Example 13 (hinge Cys)
# B4: Fab fragment of antibody 1-15 (papain digest) (Fab, V domains shown)
# VH: B1 VH with D52N
# VL: not shown
# notes: also called monovalent antibody fragment of 1-15
# B5: antibody 1-15 (chimeric antibody) (antibody, V domains shown)
# VH: B1 VH with D52N
# VL: not shown
# notes: Heavy chain variable region has an N-glycosylation motif at N52 (Kabat)
# B6: tanezumab (antibody, V domains shown)
# VH: QVQLQESGPGLVKPSETLSLTCTVSGFSLIGYDLNWIRQPPGKGLEWIGIIWGDGTTDYNSAVKSRVTISKDTSKNQFSLKLSSVTAADTAVYYCARGGYWYATSYYFDYWGQGTLVTVSS
# VL: DIQMTQSPSSLSASVGDRVTITCRASQSISNNLNWYQQKPGKAPKLLIYYTSRFHSGVPSRFSGSGSGTDFTFTISSLQPEDIATYYCQQEHTLPYTFGQGTKLEIKR
# What was measured:
# [1] = molecular target: T1, mouse βNGF (R&D Systems, Inc.) (mouse, UniProt P01139 122-241); assay: cell-based or functional assay
# [2] = molecular target: T2, human βNGF (R&D Systems, Inc.) (human, UniProt P01138 122-241); assay: cell-based or functional assay
# [3] = molecular target: T2, human βNGF (R&D Systems, Inc.); assay: Fab fragments evaluated by the tests of Examples 3, 6 and 7
# Procedure: (§1) Inhibitory activity was measured by the following method. The human trkA (R&D Systems, Inc.) was added to a white Maxisorp 384 plate (Nunc) at 60 ng/well and immobilized by being incubated overnight at 4° C. The next day, the plate was washed once with the TBST wash solution, a blocking agent (TBST containing 20% Blocking One (Nacalai Tesque, Inc.)) was then added thereto, and the plate was left to stand at room temperature for an hour. Subsequently, a mixture obtained by mixing the biotin-labeled human βNGF (0.2 μg/ml) prepared as above with the antibody prepared in Example 2 was added to the trkA-immobilized plate having undergone blocking. […] After an hour of incubation at room temperature, the plate was washed three times with the TBST wash solution and then supplemented with APU4 (BioFx) which is a reagent detecting chemiluminescence, and the amount of chemiluminescence was measured by an EnVision counter (PerkinElmer Co., Ltd.).
# (§2) The inhibitory activity was measured by the following method. […] By operating the FLIPR, a mixed solution of the antibody obtained in Example 2 and βNGF was added to the plate at 50 μl/well (final NGF concentration of 100 ng/ml), and the change in intracellular Ca²⁺ concentration was measured.
# [4] = molecular target: T2, human βNGF (R&D Systems, Inc.); assay: NGF-trkA binding inhibition ELISA and cell assays (Examples 3, 6, 7)
# Procedure: as §1, §2
# [5] = molecular target: T1, mouse βNGF (R&D Systems, Inc.); assay: method of Example 3 with biotin-labeled mouse βNGF (Example 4)
# [6] = molecular target: T2, human βNGF (R&D Systems, Inc.); assay: competition ELISA: inhibition of biotin-labeled human βNGF binding to immobilized human trkA (Example 3)
# [7] = molecular target: T2, human βNGF (R&D Systems, Inc.); assay: isothermal titration calorimetry, human βNGF titrated into antibody in PBS, single site binding model
binder,measurement,setting,value
B1,"IC50, inhibition of NGF-induced intracellular Ca2+ increase (method of Example 6)",[1],0.069 µg/mL
same,neutralizing activity relative to tanezumab (method of Example 6),[1],~3.3 times
B2,"IC50, inhibition of NGF-induced intracellular Ca2+ increase (method of Example 6, final NGF concentration 50 ng/ml)",[2],0.03 µg/mL
B3,"IC50, inhibition of NGF-induced intracellular Ca2+ increase (method of Example 6, final NGF concentration 50 ng/ml)",[2],0.028 µg/mL
B4,binding result,[3],binds
B5,binding result,[4],binds
same,binding result,[5],binds
B6,IC50,[6],0.41 µg/mL
same,"IC50, inhibition of NGF-induced intracellular Ca2+ increase (method of Example 6)",[1],0.23 µg/mL
same,"IC50, inhibition of NGF-induced intracellular Ca2+ increase (method of Example 6)",[2],0.17 µg/mL
same,-TΔS,[7],-5.73 kcal/mol
same,Kd,[7],20.4 nM
same,ΔG,[7],-10.5 kcal/mol
same,ΔH,[7],-4.76 kcal/mol
